Laboratory results published in PMC9041834, “Ubiquitin ligase activity inhibits Cdk5 to control axon termination” (PLoS Genetics, 2022).

Target: T1, GFP::FSN-1 CRISPR (endogenous FSN-1 N-terminally fused with GFP) (C. elegans, UniProt Q18223 1-332)
T1 construct: FSN-1, F-box protein of C. elegans (orthologue of human FBXO45), expressed from the endogenous locus; also called bgg47; source: C. elegans, endogenous locus tagged by CRISPR/Cas9, in whole animal lysate; not shown: GFP, N-terminal, kept
T1 sequence (looked up): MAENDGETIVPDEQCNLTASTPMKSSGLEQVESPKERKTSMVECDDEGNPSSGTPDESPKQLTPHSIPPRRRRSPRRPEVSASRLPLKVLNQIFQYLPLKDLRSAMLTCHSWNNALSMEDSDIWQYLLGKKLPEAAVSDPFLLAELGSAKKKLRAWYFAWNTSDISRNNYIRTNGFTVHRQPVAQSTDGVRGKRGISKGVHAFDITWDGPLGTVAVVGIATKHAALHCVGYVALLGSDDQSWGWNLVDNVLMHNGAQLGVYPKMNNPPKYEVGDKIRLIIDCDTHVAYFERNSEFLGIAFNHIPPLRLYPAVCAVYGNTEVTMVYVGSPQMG
Test: co-IP; CRISPR-tagged endogenous proteins in whole animal lysates of C. elegans (wild-type background, and rpm-1 LD CRISPR background for the FSN-1 pair); 50 mM Tris HCl pH 7.5, 150 mM NaCl, 1.5 mM MgCl2, 10% glycerol, 0.1% NP-40, 1 mM DTT; anti-FLAG or anti-GFP, protein-G agarose 4 h at 4°C; immunoblot
Details: partners not purified

fold change of co-precipitated CDK-5::FLAG, rpm-1 LD CRISPR background against wild-type background: ~6 fold
B1: CDK-5::3xFLAG CRISPR (endogenous CDK-5 C-terminally tagged with 3xFLAG) (enzyme)
chain: not shown
notes: CDK-5, serine/threonine kinase of C. elegans (Cdk5 orthologue), expressed from the endogenous locus; also called CDK-5::FLAG; CDK-5::FLAG CRISPR; source: C. elegans, endogenous locus tagged by CRISPR/Cas9, in whole animal lysate; not shown: 3xFLAG, C-terminal, kept
